Measured values from patent US11160871B2, “SSTR-targeted conjugates and particles and formulations thereof” (TARVEDA THERAPEUTICS, INC., priority 2015, dated 2021).
Starred links: 1 amine or outer side, 2 acyl side, 3 side chain; linkers in the order of their positions; H or OH if unused. Positions of bridges follow the written chain, without caps; N, C: chain ends. Non-standard residues stand in square brackets, D forms with d. Residues, ends and D or L forms follow the SMILES beside them. *: point of attachment. X1 = COc1cc2cc(c1Cl)N(C)C(=O)C[C@H](OC(=O)[C@H](C)N(C)C(=O)CCS*)[C@]1(C)O[C@H]1[C@H](C)[C@@H]1C[C@@](O)(NC(=O)O1)[C@H](OC)/C=C/C=C(\C)C2; N(3-sulfanylpropyl)dPhe = O=C([C@@H](Cc1ccccc1)N(CCCS[*:3])[*:1])[*:2]

What follows are compounds tested on NCI-H69 SCLC tumors (assay: H69 tumor DM-1 levels by LC/MS-MS). Details: 1 mg/kg; 24 hour time point.
Type: in vivo, mice
Method: To examine the ability of conjugates of the present invention to accumulate in tumors, a murine cancer model was used. All mice were treated in accordance with the OLAW Public Health Service Policy on Human Care and Use of Laboratory Animals and the ILAR Guide for the Care and Use of Laboratory Animals. All in vivo studies were conducted following the protocols approved by the Blend Therapeutics Institutional Animal Care and Use Committee. Animals were inoculated with 2.5×10^6 NCI-H69 SCLC (small cell lung cancer) cells in 1:1 RPMI 1640 (Invitrogen, Carlsbad, Calif.)/Matrigel® (BD Biosciences, San Jose, Calif.) via subcutaneous injection to the right flank. Tumors were allowed to reach an approximate volume of ˜500 mm3. Animals were then randomized into treatment groups of 3 animals per time point and were dosed at 1 mg/kg (10% propylene glycol in water for injection for free conjugates, or 10% sucrose for nanoparticles), or 0.4 mg/kg for DM-1 (10% propylene glycol in water for injection). The 24 hour time point was used as a benchmark across conjugates.
Tumor DM-1 levels were determined by liquid chromatography mass spectrometry (LC/MS-MS). Four volumes of 5 mM 6-maleimidohexanoic acid to 1 part tumor v/w was added and homogenized for about 10-15 seconds with a handheld homogenizer. 10 μL of 500 mM Tris(2-carboxyethyl)phosphine was added to 100 uL of tumor homogenate, mixed well and incubated at room temperature for about 5-15 min. 200-300 uL of acetonitrile was used to precipitate proteins in tumor homogenate, samples were centrifuged for 5 min, and supernatant was injected onto LC/MS-MS system for DM-1 analysis.

SMILES	H69 tumor DM-1 levels [nM]
CCCCCCCCN[C@H](Cc1ccccc1)C(=O)N[C@H]1CSSC[C@@H](C(=O)N[C@H](C(=O)NCCSSCCC(=O)N(C)[C@@H](C)C(=O)O[C@H]2CC(=O)N(C)c3cc(cc(OC)c3Cl)C/C(C)=C/C=C/[C@@H](OC)[C@@]3(O)C[C@H](OC(=O)N3)[C@@H](C)[C@@H]3O[C@@]23C)[C@@H](C)O)NC(=O)[C@H]([C@@H](C)O)NC(=O)[C@H](CCCCN)NC(=O)[C@@H](Cc2c[nH]c3ccccc23)NC(=O)[C@H](Cc2ccc(O)cc2)NC1=O [Conjugate 55]	95.3
COc1cc2cc(c1Cl)N(C)C(=O)C[C@H](OC(=O)[C@H](C)N(C)C(=O)CCSSCCC(=O)NCc1ccc(C[C@@H](N)C(=O)N[C@H]3CSSC[C@@H](C(=O)N[C@H](C(=O)O)[C@@H](C)O)NC(=O)[C@H]([C@@H](C)O)NC(=O)[C@H](CCCCN)NC(=O)[C@@H](Cc4c[nH]c5ccccc45)NC(=O)[C@H](Cc4ccc(O)cc4)NC3=O)cc1)[C@]1(C)O[C@H]1[C@H](C)[C@@H]1C[C@@](O)(NC(=O)O1)[C@H](OC)/C=C/C=C(\C)C2 [Conjugate 115]	37.1
COc1cc2cc(c1Cl)N(C)C(=O)C[C@H](OC(=O)[C@H](C)N(C)C(=O)CCSSCCNC(=O)CC[C@H]1C(=O)N[C@@H](Cc3ccc(O)cc3)C(=O)N[C@H](Cc3c[nH]c4ccccc34)C(=O)N[C@@H](CCCCN)C(=O)N[C@@H]([C@@H](C)O)C(=O)N[C@@H](Cc3ccccc3)C(=O)N1C)[C@]1(C)O[C@H]1[C@H](C)[C@@H]1C[C@@](O)(NC(=O)O1)[C@H](OC)/C=C/C=C(\C)C2 [Conjugate 14]	70.1
COc1cc2cc(c1Cl)N(C)C(=O)C[C@H](OC(=O)[C@H](C)N(C)C(=O)CCSSC[C@H](NC(=O)CC[C@H]1C(=O)N[C@@H](Cc3ccc(O)cc3)C(=O)N[C@H](Cc3c[nH]c4ccccc34)C(=O)N[C@@H](CCCCN)C(=O)N[C@@H]([C@@H](C)O)C(=O)N[C@@H](Cc3ccccc3)C(=O)N1C)C(=O)NC(C)(C)CC(C)(C)C)[C@]1(C)O[C@H]1[C@H](C)[C@@H]1C[C@@](O)(NC(=O)O1)[C@H](OC)/C=C/C=C(\C)C2 [Conjugate 16]	96.4
COc1cc2cc(c1Cl)N(C)C(=O)C[C@H](OC(=O)[C@H](C)N(C)C(=O)CCSSCCOc1ccc(C[C@@H](N)C(=O)N[C@H]3CSSC[C@@H](C(=O)N[C@H](C(=O)O)[C@@H](C)O)NC(=O)[C@H]([C@@H](C)O)NC(=O)[C@H](CCCCN)NC(=O)[C@@H](Cc4c[nH]c5ccccc45)NC(=O)[C@H](Cc4ccc(O)cc4)NC3=O)cc1)[C@]1(C)O[C@H]1[C@H](C)[C@@H]1C[C@@](O)(NC(=O)O1)[C@H](OC)/C=C/C=C(\C)C2 [Conjugate 111]	82.6
COc1cc2cc(c1Cl)N(C)C(=O)C[C@H](OC(=O)[C@H](C)N(C)C(=O)CCSSCCCN[C@H](Cc1ccccc1)C(=O)N[C@H]1CSSC[C@@H](C(=O)N[C@@H](Cc3c[nH]c4ccccc34)C(N)=O)NC(=O)[C@H](C(C)C)NC(=O)[C@H](CCCCN)NC(=O)[C@@H](Cc3c[nH]c4ccccc34)NC(=O)[C@H](Cc3ccc(O)cc3)NC1=O)[C@]1(C)O[C@H]1[C@H](C)[C@@H]1C[C@@](O)(NC(=O)O1)[C@H](OC)/C=C/C=C(\C)C2 [Conjugate 78] (H-[N(3-sulfanylpropyl)dPhe](X1)CY[dW]KVCW-NH2; disulfide 2-7)	36.2
COc1cc2cc(c1Cl)N(C)C(=O)C[C@H](OC(=O)[C@H](C)N(C)C(=O)CCSSCCCN[C@H](Cc1ccccc1)C(=O)N[C@H]1CSSC[C@@H](C(=O)N[C@H](C(=O)O)[C@@H](C)O)NC(=O)[C@H]([C@@H](C)O)NC(=O)[C@H](CCCCN)NC(=O)[C@@H](Cc3c[nH]c4ccccc34)NC(=O)[C@H](Cc3ccc(O)cc3)NC1=O)[C@]1(C)O[C@H]1[C@H](C)[C@@H]1C[C@@](O)(NC(=O)O1)[C@H](OC)/C=C/C=C(\C)C2 [Conjugate 80]	91.2
